Numbering of substitutions follows the chain as printed. Numbers in names are those of the source.
B1: XPA23 Fab, heavy chain T58H (Fab, V domains shown)
VH: EVQLLESGGGLVQPGGSLRLSCAASGFTFSKYFMFWVRQAPGKGLEWVSVISPSGGMHRYADSVKGRFTISRDNSKNTLYLQMNSLRAEDTAVYYCARVGYGGNSDYWGQGTLVTVSS
VL: DIQMTQSPSSVSASVGDRLTIICRASQDINRWLAWYQQTPGNAPKLLIHSATSLQSGVPSRFSGSGSGTDFTLTINSLQPEDFATYYCQQADSFPLTFGGGTKVEIK
B2: XPA23 Fab, heavy chain T58K (Fab, V domains shown)
VH: B1 VH with H58K
VL: B1 VL
B3: XPA23 Fab, heavy chain T58N (Fab, V domains shown)
VH: B1 VH with H58N
VL: B1 VL
B4: XPA23 Fab, heavy chain T58Q (Fab, V domains shown)
VH: B1 VH with H58Q
VL: B1 VL
B5: XPA23 Fab, heavy chain T58R (Fab, V domains shown)
VH: B1 VH with H58R
VL: B1 VL
B6: XPA23 Fab, heavy chain T58S (Fab, V domains shown)
VH: B1 VH with H58S
VL: B1 VL
B7: XPA23 Fab, heavy chain T58W (Fab, V domains shown)
VH: B1 VH with H58W
VL: B1 VL
B8: XPA23 Fab, heavy chain T58Y (Fab, V domains shown)
VH: B1 VH with H58Y
VL: B1 VL
B9: XPA23 Fab, heavy chain V50D (Fab, V domains shown)
VH: B1 VH with V50D, H58T
VL: B1 VL
B10: XPA23 Fab, heavy chain V50E (Fab, V domains shown)
VH: B1 VH with V50E, H58T
VL: B1 VL
B11: XPA23 Fab, heavy chain V50F (Fab, V domains shown)
VH: B1 VH with V50F, H58T
VL: B1 VL
B12: XPA23 Fab, heavy chain V50H (Fab, V domains shown)
VH: B1 VH with V50H, H58T
VL: B1 VL
B13: XPA23 Fab, heavy chain V50K (Fab, V domains shown)
VH: B1 VH with V50K, H58T
VL: B1 VL
B14: XPA23 Fab, heavy chain V50Q (Fab, V domains shown)
VH: B1 VH with V50Q, H58T
VL: B1 VL
B15: XPA23 Fab, heavy chain V50R (Fab, V domains shown)
VH: B1 VH with V50R, H58T
VL: B1 VL
B16: XPA23 Fab, heavy chain V50S (Fab, V domains shown)
VH: B1 VH with V50S, H58T
VL: B1 VL
B17: XPA23 Fab, heavy chain V50W (Fab, V domains shown)
VH: B1 VH with V50W, H58T
VL: B1 VL
B18: XPA23 Fab, heavy chain V50Y (Fab, V domains shown)
VH: B1 VH with V50Y, H58T
VL: B1 VL
B19: XPA23 Fab, heavy chain V99E (Fab, V domains shown)
VH: B1 VH with H58T, V99E
VL: B1 VL
B20: XPA23 Fab, heavy chain V99F (Fab, V domains shown)
VH: B1 VH with H58T, V99F
VL: B1 VL
B21: XPA23 Fab, heavy chain V99K (Fab, V domains shown)
VH: B1 VH with H58T, V99K
VL: B1 VL
B22: XPA23 Fab, heavy chain V99N (Fab, V domains shown)
VH: B1 VH with H58T, V99N
VL: B1 VL
B23: XPA23 Fab, heavy chain V99Q (Fab, V domains shown)
VH: B1 VH with H58T, V99Q
VL: B1 VL
B24: XPA23 Fab, heavy chain V99S (Fab, V domains shown)
VH: B1 VH with H58T, V99S
VL: B1 VL
B25: XPA23 Fab, heavy chain Y32D (Fab, V domains shown)
VH: B1 VH with Y32D, H58T
VL: B1 VL
B26: XPA23 Fab, heavy chain Y32E (Fab, V domains shown)
VH: B1 VH with Y32E, H58T
VL: B1 VL
B27: XPA23 Fab, heavy chain Y32F (Fab, V domains shown)
VH: B1 VH with Y32F, H58T
VL: B1 VL
B28: XPA23 Fab, heavy chain Y32H (Fab, V domains shown)
VH: B1 VH with Y32H, H58T
VL: B1 VL
B29: XPA23 Fab, heavy chain Y32N (Fab, V domains shown)
VH: B1 VH with Y32N, H58T
VL: B1 VL
B30: XPA23 Fab, heavy chain Y32Q (Fab, V domains shown)
VH: B1 VH with Y32Q, H58T
VL: B1 VL
B31: XPA23 Fab, heavy chain Y32S (Fab, V domains shown)
VH: B1 VH with Y32S, H58T
VL: B1 VL
B32: XPA23 Fab, heavy chain Y101D (Fab, V domains shown)
VH: B1 VH with H58T, Y101D
VL: B1 VL
B33: XPA23 Fab, heavy chain Y101E (Fab, V domains shown)
VH: B1 VH with H58T, Y101E
VL: B1 VL
B34: XPA23 Fab, heavy chain Y101F (Fab, V domains shown)
VH: B1 VH with H58T, Y101F
VL: B1 VL
B35: XPA23 Fab, heavy chain Y101H (Fab, V domains shown)
VH: B1 VH with H58T, Y101H
VL: B1 VL
B36: XPA23 Fab, heavy chain Y101N (Fab, V domains shown)
VH: B1 VH with H58T, Y101N
VL: B1 VL
B37: XPA23 Fab, heavy chain Y101Q (Fab, V domains shown)
VH: B1 VH with H58T, Y101Q
VL: B1 VL
B38: XPA23 Fab, heavy chain Y101R (Fab, V domains shown)
VH: B1 VH with H58T, Y101R
VL: B1 VL
B39: XPA23 Fab, heavy chain Y101W (Fab, V domains shown)
VH: B1 VH with H58T, Y101W
VL: B1 VL
B40: XPA23 Fab, heavy chain Y107D (Fab, V domains shown)
VH: B1 VH with H58T, Y107D
VL: B1 VL
B41: XPA23 Fab, heavy chain Y107E (Fab, V domains shown)
VH: B1 VH with H58T, Y107E
VL: B1 VL
B42: XPA23 Fab, heavy chain Y107F (Fab, V domains shown)
VH: B1 VH with H58T, Y107F
VL: B1 VL
B43: XPA23 Fab, heavy chain Y107H (Fab, V domains shown)
VH: B1 VH with H58T, Y107H
VL: B1 VL
B44: XPA23 Fab, heavy chain Y107K (Fab, V domains shown)
VH: B1 VH with H58T, Y107K
VL: B1 VL
B45: XPA23 Fab, heavy chain Y107N (Fab, V domains shown)
VH: B1 VH with H58T, Y107N
VL: B1 VL
B46: XPA23 Fab, heavy chain Y107Q (Fab, V domains shown)
VH: B1 VH with H58T, Y107Q
VL: B1 VL

Target: T1, IL-1beta (UniProt P01584 117-269)
T1 construct: also called IL-1β
Test: Biacore

| Binder | fold difference in affinity vs parental | binding result |
| --- | --- | --- |
| B1 | 0.98 fold |  |
| B2 |  | no binding |
| B3 | 0.9 fold |  |
| B4 |  | no binding |
| B5 | 1.14 fold |  |
| B6 | 0.82 fold |  |
| B7 | 0.93 fold |  |
| B8 | 1.01 fold |  |
| B9 |  | no binding |
| B10 |  | no binding |
| B11 |  | no binding |
| B12 |  | no binding |
| B13 |  | no binding |
| B14 |  | no binding |
| B15 |  | no binding |
| B16 |  | no binding |
| B17 |  | no binding |
| B18 |  | no binding |
| B19 |  | no binding |
| B20 | 0.03 fold |  |
| B21 |  | no binding |
| B22 |  | no binding |
| B23 |  | no binding |

| Binder | fold difference in affinity vs parental | binding result |
| --- | --- | --- |
| B24 |  | no binding |
| B25 | 0.68 fold |  |
| B26 | 0.12 fold |  |
| B27 | 0.75 fold |  |
| B28 | 0.62 fold |  |
| B29 | 0.04 fold |  |
| B30 |  | no binding |
| B31 | 1.33 fold |  |
| B32 |  | no binding |
| B33 | 0.03 fold |  |
| B34 | 0.85 fold |  |
| B35 | 0.04 fold |  |
| B36 | 0.06 fold |  |
| B37 | 0.06 fold |  |
| B38 | 0.85 fold |  |
| B39 | 0.81 fold |  |
| B40 | 0.85 fold |  |
| B41 | 0.9 fold |  |
| B42 | 0.9 fold |  |
| B43 |  | no binding |
| B44 | 0.82 fold |  |
| B45 |  | no binding |
| B46 | 0.87 fold |  |

Source: patent US20110118131A1 (published 2011)
